In US20030078374A1, “Complementary peptide ligands generated from the human genome” (priority 1999, published 2003):

Key:
[1] = molecular target: IL-1β (Homo sapiens, UniProt P01584); test: two independent in vitro bioassays of IL-1β biological activity; assay type: cell-based; conditions: effect dependent on the peptide sequence
Excerpt: The programme identified the antisense region LITVLNI in the interleukin 1 type 1 receptor (IL-1R).
The effect is dependent on the peptide sequence.

[2] = molecular target: T1, IL-1 (Homo sapiens, UniProt P01584); test: Serum Amyloid IL-1 assay; assay type: cell-based
[3] = molecular target: T1, IL-1; test: direct binding to IL-1 by biosensing techniques

T1 sequence (P01584 117-269): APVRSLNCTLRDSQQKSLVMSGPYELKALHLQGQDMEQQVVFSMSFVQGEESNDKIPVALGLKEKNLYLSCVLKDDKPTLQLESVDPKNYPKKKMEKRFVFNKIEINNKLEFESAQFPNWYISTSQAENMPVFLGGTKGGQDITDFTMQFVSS
Chain of IL-1β (P01584 117-269): as above

- inhibition of IL-1 activity (same effect) in Serum Amyloid IL-1 assay [2]: same effect is also seen
- direct binding to IL-1 [3]: shown to bind directly to IL-1
Substance: LITVLNI [antisense region in the interleukin 1 type 1 receptor (IL-1R) identified by the programme]
- inhibition of the biological activity of IL-1β [1]: shown to inhibit the biological activity of IL-1β
